Measured values published in the supplement of paper PMC12042874.
± gives the uncertainty stated by the source.

Assay: amyloid nucleation score (Sup35N fusion, yeast selection) (log enrichment); library NNK3; higher = more nucleation; inactive = no reads after selection
In short: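 Sup35N was fused to peptides of 20 random codons and expressed in psi-negative yeast, which were induced with 100 μM copper sulfate for 24 hours and then grown on medium lacking adenine and uracil for 7 days at 30°C. Plasmid inserts from input and output were sequenced on Illumina. The nucleation score is the DiMSum log enrichment of output over input reads, centred on the mode score of non-aggregating sequences. Sequences with under 100 input reads were left out, and random libraries had three technical output replicates.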
For QSFQRSVYFSSKGNTEGLFS, the amyloid nucleation score was “inactive”. Substance LMNTYL has an amyloid nucleation score of 1.71 ± 0.099. For KFCLWYSGTNELDLCEPSMT, the amyloid nucleation score was “inactive”. With WIIEGSRLRC the amyloid nucleation score was “inactive”. With SVQFFPDCCQGELTTNTVRS the amyloid nucleation score was “inactive”. For GCIYK, the amyloid nucleation score was “inactive”. For VFAFGNIGLVRWFVI, the amyloid nucleation score was “inactive”. With VYGLMIIWVIVLYPV the amyloid nucleation score was “inactive”. With LYPMGFQ the amyloid nucleation score was “inactive”. With CESDEH the amyloid nucleation score was “inactive”. SGTHNKVSTRMFGWNFI showed an amyloid nucleation score of 0.584 ± 0.11. RSRKLCNPIMILLQVFGNYG gave an amyloid nucleation score of 1.43 ± 0.07. For RDFAR, the amyloid nucleation score was “inactive”. With RYFAMGFRNSCYL the amyloid nucleation score was 2.02 ± 0.065. For DVSWRTPYTIKNYGSFFLIK, the amyloid nucleation score was “inactive”. In the case of LSNVVGRATGKRTTSYHEDA, the amyloid nucleation score is reported as 0.43 ± 0.17. For KRDEVVKFLLDGVGASGYNA, the amyloid nucleation score was “inactive”. For WTRNTKLVEIIKMYYQNVNL, the amyloid nucleation score was “inactive”. In the case of PMPCIYVSGVWHRVLLCFLS, the amyloid nucleation score is reported as “inactive”. In the case of RSYFGMARGAHFSAHFLLFL, the amyloid nucleation score is reported as “inactive”. For SSGWNFPCSPSVMPDVVGVG, the amyloid nucleation score was “inactive”. With HSYHPMPWTVNLGCHFGGYC the amyloid nucleation score was 2.38 ± 0.068. For CLGGQRHDVLPVCCWEFIME, the amyloid nucleation score was “inactive”. For MVGVGSKLGLLAATEVWNEI, the amyloid nucleation score was “inactive”. In the case of YVFSTWSSP, the amyloid nucleation score is reported as “inactive”. For RLYKKGRGPFHLTPAPRD, the amyloid nucleation score was “inactive”. In the case of RLTGCRWDSPVTKVNIRWVY, the amyloid nucleation score is reported as “inactive”. In the case of LFLKFDNSSWLMLKVMDTNI, the amyloid nucleation score is reported as 0.961 ± 0.19. For QRAYVLVTLVFGA, the amyloid nucleation score was “inactive”. For LFYDCELGLTSVRWLGWGRN, the amyloid nucleation score was “inactive”. For SCEDVVANVLLYCRISGHWG, the amyloid nucleation score was “inactive”. With DNSVALIDYSWAVTRI the amyloid nucleation score was “inactive”. With IPGYLLDHTAHK the amyloid nucleation score was “inactive”. In the case of SRSVTESLCLYT, the amyloid nucleation score is reported as “inactive”. Substance IMSFVS has an amyloid nucleation score of 0.031 ± 0.43. In the case of EPRGCYRQMLHKLIMS, the amyloid nucleation score is reported as “inactive”. In the case of GHSEYLA, the amyloid nucleation score is reported as “inactive”. In the case of LRKFFHLLQIIMERNINRSI, the amyloid nucleation score is reported as “inactive”. For HSLWRLGYYM, the amyloid nucleation score was 0.912 ± 0.15. With CIAYNMVSDYVSIGFNAGDM the amyloid nucleation score was “inactive”. For SGCRLLVVECPASCCWDITT, the amyloid nucleation score was “inactive”. With TGYYWFLFWNMWDWHVCGSS the amyloid nucleation score was “inactive”. Substance FRHCWRR has an amyloid nucleation score of -0.532 ± 1.1. With WSSSW the amyloid nucleation score was “inactive”. For SGISIVIPFPRGVQMT, the amyloid nucleation score was -0.47 ± 1. For RICSQMLFFRYESRHFWSFV, the amyloid nucleation score was “inactive”. With IGGDSRHI the amyloid nucleation score was “inactive”. For YKFIRFFSSMT, the amyloid nucleation score was “inactive”. With SSWPICMPASQNLLLNIGLG the amyloid nucleation score was “inactive”. For DTLYGDYQGQRYSVALMKCV, the amyloid nucleation score was “inactive”. For VRMCVIVQVKVCARDMTVST, the amyloid nucleation score was “inactive”. In the case of CIYGKVFF, the amyloid nucleation score is reported as 0.309 ± 0.28. In the case of YGRLCDALKGSWYCSIYHGS, the amyloid nucleation score is reported as 1.79 ± 0.074. Substance DLVYHIEDMFGSMR has an amyloid nucleation score of 0.547 ± 0.22. For KYKSVCVKFNEDLTG, the amyloid nucleation score was “inactive”. With NRQVNCSFEGFSNRSKVYAY the amyloid nucleation score was “inactive”. With YTLMFNCRFALLFYYTFSYG the amyloid nucleation score was “inactive”. With FPRNVPG the amyloid nucleation score was “inactive”. For SKLGYRRVSKCIGTDFN, the amyloid nucleation score was “inactive”. In the case of FYYYLCYDIVAISVLMNLPY, the amyloid nucleation score is reported as “inactive”. Work on MSQCFVCRFAFLIN yielded an amyloid nucleation score of 1.57 ± 0.067. With ISAGFAGNN the amyloid nucleation score was “inactive”. For TLNMEFIQFTRSFGKSISPC, the amyloid nucleation score was “inactive”. TITLFSSWGSV gave an amyloid nucleation score of 0.612 ± 0.22. For LYKGYYVLMLEWARDKIHSA, the amyloid nucleation score was “inactive”. In the case of FIIITKAFYRGTKMGGNTYS, the amyloid nucleation score is reported as -0.427 ± 0.73. In the case of LMSTYVTFFRSCKPSSCVFV, the amyloid nucleation score is reported as “inactive”. In the case of SISPFN, the amyloid nucleation score is reported as “inactive”. With QCDVCVCCVARAEAVRRILG the amyloid nucleation score was 2.33 ± 0.075. With SYFWILRAWS the amyloid nucleation score was “inactive”. MCAHVNVMRNSFYRRNAPNY gave an amyloid nucleation score of 0.603 ± 0.16. With FYCGIWAYVEDCC the amyloid nucleation score was 2.53 ± 0.057. For YINHSSSTA, the amyloid nucleation score was “inactive”. FNDNVFIGRYVRTSYCLNLR showed an amyloid nucleation score of 1.72 ± 0.064. In the case of GGFCKWRKCGVYKMTGHCPE, the amyloid nucleation score is reported as “inactive”. In the case of TVIFWWLKGNRPVSMIDSDI, the amyloid nucleation score is reported as “inactive”. With TNTYF the amyloid nucleation score was “inactive”. For CNFVNSKRNFLYTLG, the amyloid nucleation score was “inactive”. With SWRRWSPCLIEVWHMFSLVT the amyloid nucleation score was “inactive”. In the case of SAACLIMCVLLSILVQIFGM, the amyloid nucleation score is reported as “inactive”. With SLLFFRWDIWTVASGYD the amyloid nucleation score was “inactive”. With DFTCDPSTLNSRRLSEDLIR the amyloid nucleation score was “inactive”. Work on CLSSSETPFSGDRTMA yielded an amyloid nucleation score of -0.046 ± 0.52. For FIGVKQTRKLNTFCLGSWLM, the amyloid nucleation score was -0.061 ± 0.66. Work on IGYKLNFCASILDFSYCKIY yielded an amyloid nucleation score of 1.07 ± 0.19. In the case of SMLSAIMGSS, the amyloid nucleation score is reported as “inactive”. Work on SYCDSNRGVDLV yielded an amyloid nucleation score of -0.611 ± 0.75. In the case of VYDVSQVGLSRSSFFGAVQA, the amyloid nucleation score is reported as “inactive”. With VDCMATSQGRIRKYVNFVIW the amyloid nucleation score was 2.35 ± 0.08. For RITKRRHSVIPCP, the amyloid nucleation score was “inactive”. In the case of KSCWLSYGFQLFIGVMNMH, the amyloid nucleation score is reported as 1.29 ± 0.079. In the case of AQALRSVPEVWGEFTRSS, the amyloid nucleation score is reported as “inactive”. With TRLRSTPVLVVNW the amyloid nucleation score was “inactive”. With GLVVKSKYMRRFPGTR the amyloid nucleation score was “inactive”. In the case of IWQFRGSPSVYSARREWIDT, the amyloid nucleation score is reported as “inactive”. For YNSSYFYMMCPFLSSFSPFS, the amyloid nucleation score was 2.81 ± 0.067. In the case of DANGCA, the amyloid nucleation score is reported as “inactive”. VYTRSGHV showed an amyloid nucleation score of -0.112 ± 1.3. In the case of LSQVFLVMFKF, the amyloid nucleation score is reported as “inactive”. With DLVEVIYSVTSYYPNYLRAK the amyloid nucleation score was “inactive”. AWSGFE gave an amyloid nucleation score of 0.01 ± 1.2. For ACNSPEVLQNLQRLRSCGRR, the amyloid nucleation score was “inactive”. For FIWIT, the amyloid nucleation score was “inactive”. With NLDLGVDLGMQPIGSIKKST the amyloid nucleation score was “inactive”. With CVNVLQPGVTHSRMANLCSG the amyloid nucleation score was “inactive”. Work on IGIDMMMESKLYSCCNLDMY yielded an amyloid nucleation score of 1.38 ± 0.078. In the case of IWNSRSSCPECALATLETWA, the amyloid nucleation score is reported as “inactive”. In the case of NSGCQMFL, the amyloid nucleation score is reported as “inactive”. For YVSCK, the amyloid nucleation score was “inactive”. For FYYSVHFLF, the amyloid nucleation score was “inactive”. With IEWACVKQMYSHRALLRERR the amyloid nucleation score was “inactive”. With VCFVWFRRWPTIPR the amyloid nucleation score was “inactive”. In the case of TSYKYDSNR, the amyloid nucleation score is reported as “inactive”. In the case of LLSIAVVDVPSRLSRCITLL, the amyloid nucleation score is reported as “inactive”. With KSRERFLCSKGMSPQQTHMY the amyloid nucleation score was “inactive”. RVCDMVNTASWAIICSCLHL showed an amyloid nucleation score of 2.05 ± 0.068. For LSDAR, the amyloid nucleation score was “inactive”. For VNGNVDKFQKSKSLGTFVTT, the amyloid nucleation score was “inactive”. Work on KFFYCERVLSGNRVKRHERI yielded an amyloid nucleation score of 0.676 ± 0.21. In the case of CHNKKWVDFNVCFYNMLSFY, the amyloid nucleation score is reported as “inactive”. With KGALRFITYSSMLVYYLNLG the amyloid nucleation score was “inactive”.
